IntAct's records for PubMed 17446860

B1: Vacuolar-sorting protein BRO1 (Saccharomyces cerevisiae), P48582 (parent)
chain: MKPYLFDLKLKDTEKLDWKKGLSSYLKKSYGSSQWRTFYDEKATSELDHLRNNANGELAPSSLSEQNLKYYSFLEHLYFRLGSKGSRLKMDFTWYDAEYSSAQKGLKYTQHTLAFEKSCTLFNIAVIFTQIARENINEDYKNSIANLTKAFSCFEYLSENFLNSPSVDLQSENTRFLANICHAEAQELFVLKLLNDQISSKQYTLISKLSRATCNLFQKCHDFMKEIDDDVAIYGEPKWKTTVTCKLHFYKSLSAYYHGLHLEEENRVGEAIAFLDFSMQQLISSLPFKTWLVEFIDFDGFKETLEKKQKELIKDNDFIYHESVPAVVQVDSIKALDAIKSPTWEKILEPYMQDVANKCDSLYRGIIPLDVYEKESIYSEEKATLLRKQVEETETANLEYSSFIEFTNLPRLLSDLEKQFSDGNIFSNTDTQGQLMRDQIQTWCKFIQTNEFRDIEEQMNKIVFKRKQILEILSALPNDQKENVTKLKSSLVAASNSDEKLFACVKPHIVEINLLNDNGKIWKKFDEFNRNTPPQPSLLDIDDTKNDKILELLKQVKGHAEDLRTLKEERSRNLSELRDEINNDDITKLLIINKGKSDVELKDLFEVELEKFEPLSTRIEATIYKQSSMIDDIKAKLDEIFHLSNFKDKSSGEEKFLEDRKNFFDKLQEAVKSFSIFASDLPKGIEFYDSLFNMSRDLAERVRVAKQTEDSTANSPAPPLPPLDSKASVVGGPPLLPQKSAAFQSLSRQGLNLGDQFQNLKISAGSDLPQGPGIPPRTYEASPYAATPTMAAPPVPPKQSQEDMYDLRRRKAVENEERELQENPTSFYNRPSVFDENMYSKYSS
partner: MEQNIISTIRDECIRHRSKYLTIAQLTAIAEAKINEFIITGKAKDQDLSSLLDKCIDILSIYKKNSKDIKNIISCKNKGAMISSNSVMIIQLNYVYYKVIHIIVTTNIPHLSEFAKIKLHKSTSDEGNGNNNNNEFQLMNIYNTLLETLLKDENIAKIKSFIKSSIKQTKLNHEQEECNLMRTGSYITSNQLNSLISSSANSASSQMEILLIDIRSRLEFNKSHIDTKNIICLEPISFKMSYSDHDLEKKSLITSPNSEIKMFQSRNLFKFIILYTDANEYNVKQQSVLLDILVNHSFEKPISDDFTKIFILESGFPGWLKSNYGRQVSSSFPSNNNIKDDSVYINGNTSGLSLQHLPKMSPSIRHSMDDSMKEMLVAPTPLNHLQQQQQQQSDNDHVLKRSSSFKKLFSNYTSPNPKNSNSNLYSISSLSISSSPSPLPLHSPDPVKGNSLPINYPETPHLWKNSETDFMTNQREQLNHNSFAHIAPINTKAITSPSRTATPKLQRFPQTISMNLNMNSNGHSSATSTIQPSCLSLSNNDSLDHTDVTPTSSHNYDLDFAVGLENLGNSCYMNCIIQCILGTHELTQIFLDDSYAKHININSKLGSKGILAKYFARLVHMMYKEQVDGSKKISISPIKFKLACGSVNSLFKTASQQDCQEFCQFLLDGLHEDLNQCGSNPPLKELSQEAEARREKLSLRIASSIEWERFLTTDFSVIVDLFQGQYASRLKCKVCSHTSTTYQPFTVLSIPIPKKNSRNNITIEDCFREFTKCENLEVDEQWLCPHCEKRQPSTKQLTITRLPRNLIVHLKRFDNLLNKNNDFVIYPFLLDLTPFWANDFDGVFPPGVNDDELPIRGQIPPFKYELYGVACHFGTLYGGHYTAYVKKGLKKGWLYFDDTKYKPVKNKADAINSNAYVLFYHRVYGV
B2: Ubiquitin carboxyl-terminal hydrolase 4 (Saccharomyces cerevisiae), P32571 (parent)
chain: B1 partner
partner: B1 chain

Variants of: B1
Conditions: with ubp4_yeast DOA4, P32571

Row | effect of a mutation on the interaction | Variant
1 | disrupting interaction | P831A

Variants of: B1
Conditions: with ubp4_yeast DOA4, P32571
Remark: another data set of the same source

Row | effect of a mutation on the interaction | Variant
2 | disrupting interaction | S832A

Variants of: B1
Conditions: with ubp4_yeast DOA4, P32571
Remark: another data set of the same source

Row | effect of a mutation on the interaction | Variant
3 | disrupting interaction | F834A

Variants of: B1
Conditions: with ubp4_yeast DOA4, P32571
Remark: another data set of the same source

Row | effect of a mutation on the interaction | Variant
4 | disrupting interaction | V833A

Variants of: B2
Conditions: with bro1_yeast BRO1, P48582

Row | effect of a mutation on the interaction | Variant
5 | disrupting interaction | P827A

Variants of: B2
Conditions: with bro1_yeast BRO1, P48582
Remark: another data set of the same source

Row | effect of a mutation on the interaction | Variant
6 | decreasing interaction | I825A

Variants of: B2
Conditions: with bro1_yeast BRO1, P48582
Remark: another data set of the same source

Row | effect of a mutation on the interaction | Variant
7 | disrupting interaction | L830A

Variants of: B2
Conditions: with bro1_yeast BRO1, P48582
Remark: another data set of the same source

Row | effect of a mutation on the interaction | Variant
8 | disrupting interaction | L829A

Variants of: B2
Conditions: with bro1_yeast BRO1, P48582
Remark: another data set of the same source

Row | effect of a mutation on the interaction | Variant
9 | disrupting interaction | Y826A

Variants of: B2
Conditions: with bro1_yeast BRO1, P48582
Remark: another data set of the same source

Row | effect of a mutation on the interaction | Variant
10 | disrupting interaction | V824A
